Columns and labels:
[1] = target: cardiac ryanodine receptor (RyR2) (rat (endogenous in rat ventricular myocytes)) (UniProt B0LPN4); assay: confocal fluorescence wash-in and wash-out kinetics
[2] = target: cardiac ryanodine receptor (RyR2) (rat (endogenous in rat ventricular myocytes)) (UniProt B0LPN4); assay: other fluorescence titration
[3] = target: cardiac ryanodine receptor (RyR2) (rat (endogenous in rat ventricular myocytes)) (UniProt B0LPN4); assay: FRET or BRET
[4] = target: cardiac ryanodine receptor (RyR2) (rat (endogenous in rat ventricular myocytes)) (UniProt B0LPN4); assay: FRET or BRET; remark: listed apart in the source

Sequence of UniProt B0LPN4 (B0LPN4 whole entry): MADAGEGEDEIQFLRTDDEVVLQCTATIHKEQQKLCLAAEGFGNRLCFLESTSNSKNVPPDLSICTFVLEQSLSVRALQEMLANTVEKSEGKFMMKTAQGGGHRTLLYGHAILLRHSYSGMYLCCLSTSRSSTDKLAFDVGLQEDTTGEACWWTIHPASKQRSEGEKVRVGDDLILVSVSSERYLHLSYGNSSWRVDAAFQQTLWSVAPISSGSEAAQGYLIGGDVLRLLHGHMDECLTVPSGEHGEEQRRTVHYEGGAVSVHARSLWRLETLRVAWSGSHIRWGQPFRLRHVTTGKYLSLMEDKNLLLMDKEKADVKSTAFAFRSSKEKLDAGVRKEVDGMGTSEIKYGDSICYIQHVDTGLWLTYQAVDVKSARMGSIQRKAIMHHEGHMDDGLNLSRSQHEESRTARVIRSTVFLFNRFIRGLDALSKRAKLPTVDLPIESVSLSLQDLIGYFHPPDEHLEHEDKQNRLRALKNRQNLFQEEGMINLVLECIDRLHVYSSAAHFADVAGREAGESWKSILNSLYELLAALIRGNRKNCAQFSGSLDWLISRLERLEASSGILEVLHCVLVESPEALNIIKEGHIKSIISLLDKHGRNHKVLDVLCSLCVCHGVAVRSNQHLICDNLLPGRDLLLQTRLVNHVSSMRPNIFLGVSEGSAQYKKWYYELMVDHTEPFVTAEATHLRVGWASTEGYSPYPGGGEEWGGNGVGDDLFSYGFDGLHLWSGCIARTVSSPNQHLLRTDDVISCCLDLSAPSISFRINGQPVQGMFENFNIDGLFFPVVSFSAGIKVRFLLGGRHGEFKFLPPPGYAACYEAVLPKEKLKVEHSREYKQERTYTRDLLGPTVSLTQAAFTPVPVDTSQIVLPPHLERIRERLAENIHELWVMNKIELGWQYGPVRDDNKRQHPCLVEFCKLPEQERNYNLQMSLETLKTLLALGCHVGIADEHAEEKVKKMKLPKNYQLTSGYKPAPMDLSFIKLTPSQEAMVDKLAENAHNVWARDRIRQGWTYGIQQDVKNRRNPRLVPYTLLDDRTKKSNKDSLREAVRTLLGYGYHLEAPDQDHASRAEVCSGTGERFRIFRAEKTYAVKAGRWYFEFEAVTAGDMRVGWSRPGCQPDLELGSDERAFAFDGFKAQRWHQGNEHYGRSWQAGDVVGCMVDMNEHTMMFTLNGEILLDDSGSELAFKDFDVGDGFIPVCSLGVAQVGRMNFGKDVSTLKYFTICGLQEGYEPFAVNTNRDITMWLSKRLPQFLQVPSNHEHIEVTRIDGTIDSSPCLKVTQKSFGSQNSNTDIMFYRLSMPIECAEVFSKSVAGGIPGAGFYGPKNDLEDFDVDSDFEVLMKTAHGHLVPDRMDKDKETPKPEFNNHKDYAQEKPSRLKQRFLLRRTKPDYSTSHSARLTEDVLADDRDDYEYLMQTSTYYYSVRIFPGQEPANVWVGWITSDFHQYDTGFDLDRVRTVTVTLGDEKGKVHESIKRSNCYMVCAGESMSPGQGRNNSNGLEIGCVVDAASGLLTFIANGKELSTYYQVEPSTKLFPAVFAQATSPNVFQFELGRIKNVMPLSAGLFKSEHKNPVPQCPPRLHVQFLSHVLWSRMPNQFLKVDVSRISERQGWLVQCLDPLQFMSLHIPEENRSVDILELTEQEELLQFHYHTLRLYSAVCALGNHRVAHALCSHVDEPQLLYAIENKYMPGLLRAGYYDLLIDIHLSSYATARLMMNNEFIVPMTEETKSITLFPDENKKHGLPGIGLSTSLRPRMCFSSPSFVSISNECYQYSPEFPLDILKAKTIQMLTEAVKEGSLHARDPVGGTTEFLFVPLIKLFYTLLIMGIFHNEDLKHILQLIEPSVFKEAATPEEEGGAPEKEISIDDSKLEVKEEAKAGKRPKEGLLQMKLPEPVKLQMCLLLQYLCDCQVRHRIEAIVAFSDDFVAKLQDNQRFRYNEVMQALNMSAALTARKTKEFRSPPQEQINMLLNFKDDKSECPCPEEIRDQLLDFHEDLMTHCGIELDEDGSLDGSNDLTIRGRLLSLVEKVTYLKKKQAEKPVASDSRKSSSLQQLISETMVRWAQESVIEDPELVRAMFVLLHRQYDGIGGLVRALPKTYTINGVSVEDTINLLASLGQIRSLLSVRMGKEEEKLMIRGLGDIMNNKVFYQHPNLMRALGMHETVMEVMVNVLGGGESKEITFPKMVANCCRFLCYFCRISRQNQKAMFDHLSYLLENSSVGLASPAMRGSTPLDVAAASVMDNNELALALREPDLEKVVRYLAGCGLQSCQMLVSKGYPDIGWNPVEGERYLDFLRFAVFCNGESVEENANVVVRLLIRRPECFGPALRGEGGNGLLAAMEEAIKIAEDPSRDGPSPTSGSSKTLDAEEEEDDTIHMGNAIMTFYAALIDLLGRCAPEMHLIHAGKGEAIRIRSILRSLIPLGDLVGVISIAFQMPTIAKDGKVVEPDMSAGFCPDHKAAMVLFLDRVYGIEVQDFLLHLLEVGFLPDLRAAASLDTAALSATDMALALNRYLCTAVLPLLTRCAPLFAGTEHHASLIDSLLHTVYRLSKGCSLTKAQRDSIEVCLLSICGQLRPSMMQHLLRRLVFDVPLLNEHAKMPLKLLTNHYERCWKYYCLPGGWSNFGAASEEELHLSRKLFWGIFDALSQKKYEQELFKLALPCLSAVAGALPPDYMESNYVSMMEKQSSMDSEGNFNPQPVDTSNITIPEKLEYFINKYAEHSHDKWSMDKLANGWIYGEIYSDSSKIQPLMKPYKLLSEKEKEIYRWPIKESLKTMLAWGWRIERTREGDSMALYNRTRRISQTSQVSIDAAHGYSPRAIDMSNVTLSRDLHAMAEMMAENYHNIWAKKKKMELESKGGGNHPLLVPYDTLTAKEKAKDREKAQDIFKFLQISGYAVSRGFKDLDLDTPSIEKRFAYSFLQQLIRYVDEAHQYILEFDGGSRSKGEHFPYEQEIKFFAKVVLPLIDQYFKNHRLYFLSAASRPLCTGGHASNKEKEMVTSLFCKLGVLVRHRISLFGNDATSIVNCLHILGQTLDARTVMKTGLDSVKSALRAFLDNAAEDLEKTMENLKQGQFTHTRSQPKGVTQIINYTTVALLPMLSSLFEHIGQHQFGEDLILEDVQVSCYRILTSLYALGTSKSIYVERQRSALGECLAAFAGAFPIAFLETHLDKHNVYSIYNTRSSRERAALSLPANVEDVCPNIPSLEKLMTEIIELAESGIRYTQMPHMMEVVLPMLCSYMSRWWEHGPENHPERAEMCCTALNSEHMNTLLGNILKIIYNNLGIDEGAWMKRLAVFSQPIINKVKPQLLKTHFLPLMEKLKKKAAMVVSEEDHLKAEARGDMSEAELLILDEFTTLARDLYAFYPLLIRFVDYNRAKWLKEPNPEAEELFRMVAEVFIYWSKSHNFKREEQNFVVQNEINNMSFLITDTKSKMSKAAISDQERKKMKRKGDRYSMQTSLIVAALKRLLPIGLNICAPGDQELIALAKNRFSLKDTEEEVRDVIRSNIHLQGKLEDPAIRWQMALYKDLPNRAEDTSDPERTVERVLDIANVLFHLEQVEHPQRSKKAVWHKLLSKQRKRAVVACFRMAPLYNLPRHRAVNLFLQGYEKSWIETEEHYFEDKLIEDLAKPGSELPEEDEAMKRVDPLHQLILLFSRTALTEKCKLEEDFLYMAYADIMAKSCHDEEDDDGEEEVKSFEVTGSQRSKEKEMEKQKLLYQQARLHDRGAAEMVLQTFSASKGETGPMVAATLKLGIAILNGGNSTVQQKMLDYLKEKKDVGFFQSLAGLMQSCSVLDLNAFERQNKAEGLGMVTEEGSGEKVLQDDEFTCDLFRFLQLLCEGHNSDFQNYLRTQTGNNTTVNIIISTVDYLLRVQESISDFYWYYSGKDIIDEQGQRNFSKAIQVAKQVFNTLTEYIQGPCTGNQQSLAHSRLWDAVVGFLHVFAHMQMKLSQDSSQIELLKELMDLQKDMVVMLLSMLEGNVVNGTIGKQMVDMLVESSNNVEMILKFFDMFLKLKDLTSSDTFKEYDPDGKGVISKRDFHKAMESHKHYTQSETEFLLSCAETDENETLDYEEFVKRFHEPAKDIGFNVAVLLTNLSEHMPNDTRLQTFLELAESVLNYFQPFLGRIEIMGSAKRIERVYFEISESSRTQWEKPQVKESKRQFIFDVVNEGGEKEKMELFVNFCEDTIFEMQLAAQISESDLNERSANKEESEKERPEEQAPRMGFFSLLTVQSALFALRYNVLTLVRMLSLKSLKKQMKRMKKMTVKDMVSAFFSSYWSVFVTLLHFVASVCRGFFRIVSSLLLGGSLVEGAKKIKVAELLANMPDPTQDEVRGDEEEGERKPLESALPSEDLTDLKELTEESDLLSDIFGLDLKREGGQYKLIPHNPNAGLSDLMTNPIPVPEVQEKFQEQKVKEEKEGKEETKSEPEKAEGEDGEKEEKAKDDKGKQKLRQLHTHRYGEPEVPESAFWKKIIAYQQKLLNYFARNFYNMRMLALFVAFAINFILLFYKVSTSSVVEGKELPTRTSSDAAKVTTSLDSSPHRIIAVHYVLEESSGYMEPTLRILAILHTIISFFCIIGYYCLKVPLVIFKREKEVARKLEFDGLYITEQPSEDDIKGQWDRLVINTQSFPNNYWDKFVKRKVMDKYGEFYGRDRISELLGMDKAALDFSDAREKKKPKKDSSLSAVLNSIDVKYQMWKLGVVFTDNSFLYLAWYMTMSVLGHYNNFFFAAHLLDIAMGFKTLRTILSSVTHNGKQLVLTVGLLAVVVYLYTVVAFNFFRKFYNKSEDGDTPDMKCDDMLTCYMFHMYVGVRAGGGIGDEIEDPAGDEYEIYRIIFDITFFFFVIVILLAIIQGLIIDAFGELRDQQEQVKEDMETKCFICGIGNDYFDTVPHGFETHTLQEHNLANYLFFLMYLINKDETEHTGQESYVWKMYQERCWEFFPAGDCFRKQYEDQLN

fold faster association after pre-saturation with NF-DPc10 against control [1] [fold] | percent faster τ (wash-in) with ryanodine plus caffeine against control [1] [%] | Kd [2] [nM] | stoichiometry N (DPc10 per RyR2 monomer) [2] | Kd [3] [nM] | Kd [4] [nM] | Substance
2 | 21 | 480 | 1 |  |  | DPc10 labeled with 5-carboxyfluorescein at its N-terminus (F-DPc10) (peptide)
 |  |  |  | 450 | 610 | DPc10 labeled with HiLyte Fluor 647 on the N-terminus (HF647-DPc10) (peptide)

Reference: article PMC3573756
